From PMC4526739

Key:
Test in all cases: EMSA
[1] = molecular target: T1, Nab2;Tbp (Saccharomyces cerevisiae;Saccharomyces …, UniProt P32505;P13393 1-525;1-240, |)
T1 sequence 1: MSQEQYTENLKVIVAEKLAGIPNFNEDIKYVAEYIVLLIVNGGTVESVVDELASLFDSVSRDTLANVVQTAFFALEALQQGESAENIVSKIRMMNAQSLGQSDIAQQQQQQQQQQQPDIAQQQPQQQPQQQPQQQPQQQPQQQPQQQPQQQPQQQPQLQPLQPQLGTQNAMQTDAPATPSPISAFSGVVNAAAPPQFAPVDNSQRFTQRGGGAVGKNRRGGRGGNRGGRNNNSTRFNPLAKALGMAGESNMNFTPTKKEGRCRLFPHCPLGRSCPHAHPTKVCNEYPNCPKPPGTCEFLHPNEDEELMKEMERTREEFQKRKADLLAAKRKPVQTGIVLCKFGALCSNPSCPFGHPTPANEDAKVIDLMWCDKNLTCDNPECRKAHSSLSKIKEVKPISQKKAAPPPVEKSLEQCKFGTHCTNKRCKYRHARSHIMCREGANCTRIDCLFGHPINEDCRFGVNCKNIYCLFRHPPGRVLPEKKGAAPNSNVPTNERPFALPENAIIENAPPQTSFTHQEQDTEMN
T1 sequence 2: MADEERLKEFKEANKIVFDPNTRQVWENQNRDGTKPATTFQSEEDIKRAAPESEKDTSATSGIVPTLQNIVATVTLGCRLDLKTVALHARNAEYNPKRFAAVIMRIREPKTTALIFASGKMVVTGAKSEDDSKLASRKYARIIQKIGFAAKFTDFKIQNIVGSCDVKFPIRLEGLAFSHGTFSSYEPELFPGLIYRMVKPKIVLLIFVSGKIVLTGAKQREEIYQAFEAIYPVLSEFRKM

[2] = molecular target: Nab2;Tbp;Brf1;Bdp1 (Saccharomyces cerevisiae;Saccharomyces …, UniProt P32505;P13393;P29056;P46678 1-525;1-240;1-596;1-594, |||)
[3] = molecular target: T2, Nab2;Tbp;Brf1 (Saccharomyces cerevisiae;Saccharomyces …, UniProt P32505;P13393;P29056 1-525;1-240;1-596, ||)
T2 sequence 1: T1 sequence 1
T2 sequence 2: T1 sequence 2
T2 sequence 3: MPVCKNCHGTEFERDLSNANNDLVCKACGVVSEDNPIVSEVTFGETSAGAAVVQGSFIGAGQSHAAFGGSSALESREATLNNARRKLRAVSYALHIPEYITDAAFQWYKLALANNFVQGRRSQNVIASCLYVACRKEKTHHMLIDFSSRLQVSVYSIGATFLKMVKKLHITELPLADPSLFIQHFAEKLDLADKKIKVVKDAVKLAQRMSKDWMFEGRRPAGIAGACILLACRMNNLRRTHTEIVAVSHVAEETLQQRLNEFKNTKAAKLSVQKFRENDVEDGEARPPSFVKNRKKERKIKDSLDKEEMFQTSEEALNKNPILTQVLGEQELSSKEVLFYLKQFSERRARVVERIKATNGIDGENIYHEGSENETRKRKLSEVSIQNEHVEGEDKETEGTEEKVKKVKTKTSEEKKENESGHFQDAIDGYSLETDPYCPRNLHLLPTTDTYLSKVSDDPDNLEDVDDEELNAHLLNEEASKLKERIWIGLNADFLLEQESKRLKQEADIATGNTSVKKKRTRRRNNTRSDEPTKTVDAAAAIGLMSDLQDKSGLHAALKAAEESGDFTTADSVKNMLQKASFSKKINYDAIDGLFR

Measured: binding result

Sequence of Nab2;Tbp;Brf1;Bdp1 (P46678 whole entry, one chain of several): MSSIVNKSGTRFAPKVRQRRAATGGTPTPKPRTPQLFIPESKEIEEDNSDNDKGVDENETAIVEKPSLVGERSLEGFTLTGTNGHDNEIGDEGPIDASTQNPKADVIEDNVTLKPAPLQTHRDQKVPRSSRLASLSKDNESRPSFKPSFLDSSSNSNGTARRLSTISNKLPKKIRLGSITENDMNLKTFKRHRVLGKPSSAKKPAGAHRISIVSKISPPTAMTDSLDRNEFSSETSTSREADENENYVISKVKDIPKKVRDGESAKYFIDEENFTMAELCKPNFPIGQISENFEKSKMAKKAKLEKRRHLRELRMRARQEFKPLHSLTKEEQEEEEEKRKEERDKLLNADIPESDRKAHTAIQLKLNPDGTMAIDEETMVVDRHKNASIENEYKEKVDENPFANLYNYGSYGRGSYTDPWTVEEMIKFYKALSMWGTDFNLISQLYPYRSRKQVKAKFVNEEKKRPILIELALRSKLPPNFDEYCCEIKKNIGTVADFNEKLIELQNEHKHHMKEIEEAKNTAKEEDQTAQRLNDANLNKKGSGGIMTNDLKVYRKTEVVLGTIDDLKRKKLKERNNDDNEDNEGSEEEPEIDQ

B1: TA-30-B6 (dsDNA)
DNA 1: GCTGAAATCTCTTTTTCAATTGCTCCGGTGTATAAAGCCGCGGTCCCTTACTCTTTCTTCAACAATTAAATACTC
DNA 2: GAGTATTTAATTGTTGAAGAAAGAGTAAGGGACCGCCCCTTTATTGACCGGAGCAATTGAAAAAGAGATTTCAGC
binds: [1] | [2] | [3]
